Data on one molecule can be found in US20260226194A1.

Broadly, the Kd is the equilibrium constant for the complex coming apart. As usually defined, the koff is a measure of how fast the partners let go of each other. As a reminder, the kon is the rate constant with which the complex forms.

The experiment has as its target recombinant rabbit PAPPA (rabbit) (UniProt G1SFH7). Put plainly: SPR, Biacore 8K+, mAb captured on PrismA chip, PAPPA as analyte, 37 C, mean of n=3. (Surface plasmon resonance follows binding to a sensor surface in real time, without labels.)

B1: TPP-12744 (antibody, human IgG1, kappa, V domains shown)
VH: QVQLVQSGAEVKKPGASVKVSCKASGYTFTSYAMHWVRQAPGQRLEWMGWMNAGTGATKSSQKFQGRVTITRDTSASTAYMELSSLRSEDTAVYYCARGPSMETPTTFGMDVWGQGTTVTVSS
VL: DIQMTQSPSSVSASVGDRVTITCRASQGISRWLAWYQQKPGKAPKLLIYAASSLQSGVPSRFSGSGSGTDFTLTISSLQPEDFATYYCQQENAYPFTFGGGTKVEIKR
With B1, the Kd was determined as 0.17 nM, the koff is 0.000559 s⁻¹ and the kon came to 3.28e+06 M⁻¹ s⁻¹.
